Target: PDGF-BB (Homo sapiens, UniProt P01127 P01127:82-190)
Assay: cell_activity; 3T3 proliferation; Table 2 prints 3.45
Conditions: tags: PeproTech; chain copies: 2 (inferred, homodimer)

PDGF-BB, sequence (P01127 82-190, one chain of several): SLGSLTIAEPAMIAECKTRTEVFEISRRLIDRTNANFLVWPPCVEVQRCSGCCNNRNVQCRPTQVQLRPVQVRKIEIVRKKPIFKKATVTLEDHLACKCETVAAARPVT

CACAGGCTACGGCACGTAGAGCATCACCATGATCCTGTG (ssDNA, 3'-inverted dT) [ARC124]
IC50: 20.7 nM
